Data as given in a protein production outcome set (Wang et al. 2014).

Test: label from the status in PepcDB records

Row | Sequence | protein production
1 | MKTGDKQFAVIGLGRFGLAVCKELQDSGSQVLAVDINEDRVKEAAGFVSQAIVANCTHEETVAELKLDDYDMVMIAIGADVNASILATLIAKEAGVKSVWVKANDRFQARVLQKIGADHIIMPERDMGIRVARKMLDKRVLEFHPLGSGLAMTEFVVGSRLMGKTLSDLALCKVEGVQVLGFKRGPEIIKAPDMSTTLEIGDLIIVVGPQDKLANKLKSLLEHHHHHH | failed
2 | MPLRFTTRRAEGGSARRPLSIVSCPLFCPSEPNQFSPMLFRQINDAKLAQYAYLIGCQETGEALLVDPERDIDRYLDLAEREGLEITAVTETHIHADFLSGARELAERFDTTLYLSDEGDENWKYEWAQGPKQGGGDYDVTWLHDGDTFQVGSVEVTALHTPGHTPEHLSFLVTDRGGGADEPMGLLTGDFVFVGDLGRPDLLESAAQVEGAMEPSARTLYTSVQRVLEMPDHLQVWPAHGAGSACGKALGAVPQSTLGYEKQFNPMIDAAREGEDAFVEAILADQPEPQIYFARMKRDNKEGMPVLGSLPAPRELTVRELEDAAADEAPLVIDTRLDRSAYMANHIPGSLYAPMNDTFNTVVGSLVEDETTPIVLIADEGDVEEAVRDLVRIGYDNVTGFAEIDTLQRYFQAGGPSETIDEITFADFDAELQDEATGVLDVRYRSEYEEGHVEGALNASYTRMPEYETELPTDKTLLVHCGSGARAAAASSYLARTGHSVKYVNDHFANYEAASEEAVAA | failed
3 | MAGMDNLIAIAAAMLYLLSIATIVPGLVNQTGIRAKTVFISAAIALLFHGWLLSDLILHSSGQNLSILNVASLISFIISLAMSLAMFKTRLWFLLPVAYSFSAINLSAATFLPGTFITHLESDPKLLLHISLALFSYSTLSIGALYALQLAWLDHKLKSKKVFSINPNLPPLLLVERQLFKIILIGNLLLTGTLLTGFIFVQDMFAQGKAHKGILSFVAWIVYSILLWGHYRKGWRGKKVTWFAVAGATLLTLAYFGSRFVREIILR | failed
4 | MGQAFAALSVWQVMGYGLVFFGGIYLLFGAATWLLTRRVLPALGVGRPLDPRPLGPGQWRREFLQSGLSVLIFGLGMVFPWGLVQLGWARLDDDAGPWRIVAEILVLVIWNDVHFWINHRLLHTRLLRRFHLPHHRSVVTTPFSTYSFHPIEALMLGNVILLPMVVHDFSFWSLLSVPLFSLFFNCVGHANYDFFPGVSYAHWFAASRRHHLHHACYQGNFGFQFTFMDRLFGTRLGADAAQGQLAAYRKRGAVGSAR | failed
5 | MTRPERAPLSASARIEVPFHDVDAMAVCWHGHYLKYFEIGRAALLRAFDYDYPEMRASGYLWPVVEAHLKYIRPATYGQRIEVRATLIEYENRLKIGYEIADCASGQRLTKGHTIQVAVCAATSELQFVSPAVVFEKVERAWADLEHHHHHH | failed
6 | MFGCLVAGRLVQTDAQQVASDKFVFNLPDYEHVNHVVVFLLGTVPFPEGLGGAVYLCVPGGAAGQVWQLLGFITNEKPSAIFRISGLKAGEGSSHPFGMMDAPAAPSMAQVGVSVEGLHLLAQQTPVSSSAVSTLDSFTQFTQKMLDSLFNFTSSFALSQSRMSPNPSEMFIPASSIRRWYENFQRRLMQNPNFWKT | failed
7 | MLRHILTAKNLLSNPIFKFPNCLPFLSTVCCICRQFVGENLCSFADSPSLFEMWFHFLQLRSALNISSALRQVVHGTRWHAKRKSYKVLFWREITPLAVPIFMENACVLLMGVLSTFLVSWLGKDAMAGVGLADSFNMVIMAFFAAIDLGTTVVVAFSLGKRDRRRARVATRQSLVIMTLFAVLLATLIHHFGEQIIDFVAGDATTEVKALALTYLELTVLSYPAAAITLIGSGALRGAGNTKIPLLINGSLNILNIIISGILIYGLFSWPGLGFVGAGLGLTISRYIGAVAILWVLAIGFNPALRISLKSYFKPLNFSIIWEVMGIGIPASVESVLFTSGRLLTQMFVAGMGTSVIAGNFIAFSIAALINLPGSALGSASTIITGRRLGVGQIAQAEIQLRHVFWLSTLGLTAIAWLTAPFAGVMASFYTQDPQVKHVVVILIWLNALFMPIWSASWVLPAGFKGARDARYAMWVSMLSMWGCRVVVGYVLGIMLGWGVVGVWMGMFADWAVRAVLFYWRMVTGRWLWKYPRPEPQKCEKKPVVSE | failed
8 | MKNYKIILTALCFICIFSCSKTETKKSIKYKDGVYKSFANIKDDWGGTAEVEIKIEEGKIVECTFLSYEKNGNLKGPEYGKVDGVIKNMGLYKIAQASVLKAAEYGQKLIETQNIDDVDVIAGASISYKLFKDAVENALQGAMQNAKENLEHHHHHH | failed
9 | TAYIIVGLTPKDAEKLQQYGARVASTLAKYSGEVLVKGSVEQLHGKFEHKAQVILEFPSREDAYNWYHSEEYQALISTRDLGMDSQFQLIG | not failed
10 | MRMLKTGLLNFISVLVKVITGLFLNKIMALYVGPAGYALVSQFQNGINFITTFASGAINTGVTKYTAEYANDKGKTSDLFKCITLLAITCCSFFSLTIIVFSEYFSLKLLGTINYSGVIKWFAATLFLFVANSILVSIINGLKEFKLYVLINIFGSLFSLLFSGILIYFFNLKGALIAFATNQSIVFFMTFYLIISKKMVSLKSFIGMPSDFYFIKKLIQYALMAIVSAFCVIYMQIIIRTYIANHFGWVQAGIWDGVWRISSLYLMLVTVPLGVYYLPRLAELHTKSLLLREIKQGYLFLLPIIIISAIIIYYLRYFIIELLFSKSFVSMGDIIGWQLLGDIFKIGSWLLSYIMLSKALTKTYIITEITTALLFLGGVHYLSPLYGLKGVTLAYCITYFCYWIMMIVVIISYFKGNFRNE | failed
11 | MLMTLAATTSVSFNSKLLLFRIRCSDSNPKRGFGSKKEEKDPALQQRKSSSKQSVSVPRKAPGLNTQFEGKSGRSFDIDFDERLENIRRSALEQKKTEVVKEFGPIDYDAPVKSDQKTIGLGTKVGVGIAVVVFGLVFALGDFLPTGSDSPTKNTTVVKNQISEEEKATLQQRLKEFETTLNGTPQDQAALEGAAVTLTELGDYSRAAAFLEKLAKERPTDPDVFRLLGEVNYELNNYEGSIAAYKISEKVSKGIDLEVTRGLMNAYLAAKKPDEAVKFLLDTRERLNTKKTSTTDSVTDETNLDPIQVELLLGKAYSDWGHISDAIAVYDQLISAHPEDFRGYLAKGIILRENGSRGDAERMFIQARFFAPNKAKALVDRYSKL | failed
12 | MVPLPRSMRVLHWLTVLCLVMAASLILLRAELEGRALRQWLLEGHRHFGLMVLLLFVLRVSLRLRLRALPPGPPSPLIMRLAAGGTHVAMYALMLALPLIGWSLSNAYGKTVYLFGITLPNLVAADEDLADTLGTWHLNAAWALLALVAVHIVAALVHHLVLRDGLLHRVLPGKHHR | failed
13 | MNIGSMDIQKIGMITSYRNLAKRADWLWQQTPQQFGIWQNIQIQALSGKPDFLLMYQFDFPKDNQQTSLIDKLRQKLQNPQVNVESLLRDVPKEKIIYLLREPPLDEIVEKNKRYYQEAKKYCGYISGPDDFAPKPDYMPAIWYHNNSFRELNEMPVPEKVFPCSWITSGISRTVNHRRRLKFVELIQASEVKCDVYGRDLPIWAKSLGELGNKWYGMAPYYYNLSIENYADNDWYVSEKLWDALLAWCLPIYYGGPAADKLLPPGSFLRLPSLDEKGIAYIQEVTATPDAWYAAKDAIAEARQLILHKLNLLNWLSEFVTQFS | failed
14 | MTAMMTILGPVLMGAAFGFLLQRGKVTNCNVIENQFRLRDFTVLKVMGTAIVVGGIGVLLLVDTGNTKYYVKDANMLAIALGAALFGIGMVVYGYCPGTALGAIATGSIHALVGALGMVAGAILYALSFDWLKAHVLNVWALGKVRLPDVTNIPDIIWFAALAVGAGLFFWWIESVEAEQKRM | failed
15 | MAIAHTYRRYLDYLRQDRGLAKNSLLVYGPFIRDFLDSHSAGDGSLLPDAFDAVTIRNHLLARSKGRSAEYTRLMAVALRSFCHFLFLRGDTARDLAGSVLEHHHHHH | failed
16 | MPVTEISEKLSVSPQPSIEDIQSLRDQGFKTLINNRPDNEDASQPNTRAERQQAKQCDLSYAFIPVTADTITEADVRAFQRAVDESDGPVLAHCQTGKRALNLYLIGEVLDGSMSVDKVVEFGRSRGFDTSAAAAWLKQHAARRPQVKGFFDKRTWSVQYVISDPLTRKCAIVDPVLDFDEKSGATATINADAILDYIRDNGLTVEWILDTHPHADHFSAAHYLQEKTGARTAIGERVVDVQKLWKGIYNWPELATDGSQWDRLFAHGETFEVGSIDAKVLFSPGHTLASITYVIGDAAFVHDTLFMPDSGTARADFPGGDARVLWKSIQEILALPAETRIFTGHDYQPEGRAPRWESTVAEQKKSNPHLAGVNEQEFVALRTTRDKTLPMPKLILHALQVNIRGGRLPEPEANGKRYLKFPLDALQGAAWE | failed
